Test results taken from doi:10.1101/2022.07.22.500997 (bioRxiv, 2022).

How the values were obtained:
[1] = biological target: Dg_(GH172a) (HMPREF9455_02467), DUF2961 / GH172 exo-D-arabinofuranosidase from Dysgonomonas gadei (Dysgonomonas gadei) (UniProt F5IZF0); test: SEC-MALS
[2] = biological target: Dg_(GH172b) (HMPREF9455_02471), DUF2961 / GH172 exo-D-arabinofuranosidase from Dysgonomonas gadei (Dysgonomonas gadei) (UniProt F5IZF4); test: SEC-MALS
[3] = biological target: Dg_(GH172c) (HMPREF9455_02479), DUF2961 / GH172 exo-D-arabinofuranosidase from Dysgonomonas gadei (Dysgonomonas gadei) (UniProt F5IZG2); test: crystal structure
[4] = biological target: Dg_(GH172c) (HMPREF9455_02479), DUF2961 / GH172 exo-D-arabinofuranosidase from Dysgonomonas gadei (Dysgonomonas gadei) (UniProt F5IZG2); test: SEC-MALS
[5] = biological target: Myc_(GH172) (GII36_05205), DUF2961 / GH172 enzyme from Candidatus Mycosynbacter amalyticus (Candidatus Mycosynbacter amalyticus); test: SEC-MALS
SEC-MALS = biological target: the molecule itself; test: SEC-MALS

Dg_(GH172a) (HMPREF9455_02467), DUF2961 / GH172 exo-D-arabinofuranosidase from Dysgonomonas gadei (from UniProt F5IZF0 1-386) (enzyme)
stoichiometry N [1]: 12

Dg_(GH172b) (HMPREF9455_02471), DUF2961 / GH172 exo-D-arabinofuranosidase from Dysgonomonas gadei (from UniProt F5IZF4 1-643) (enzyme)
stoichiometry N [2]: 2

Dg_(GH172c) (HMPREF9455_02479), DUF2961 / GH172 exo-D-arabinofuranosidase from Dysgonomonas gadei (from UniProt F5IZG2 1-402) (enzyme)
stoichiometry N [3]: 6
stoichiometry N [4]: 6

Myc_(GH172) (GII36_05205), DUF2961 / GH172 enzyme from Candidatus Mycosynbacter amalyticus
stoichiometry N [5]: 3

B1: Noc_(GH172) (O3I_017420), DUF2961 / GH172 enzyme from Nocardia brasiliensis (enzyme)
chain: MTPPRRSELWLLDDTRTRSVSAENPTGAPGGGARATTGTGAHAARLLGPGWKISPSIVLGDGETATLADVSGPGVLRHCWLTTDRAALRELTLRMYWDDAAEPAIDVPLGDFFCNGWDELALVDSEMVVVAPAGGLNSYWPMPFRRRARITLENHCGRSVPVYYQITYGEEDVPGEAGYLHARWSRSAPLGSPAVHTLLDTGPARGRYVGTYLAIRPGAPRWWGEGEMKFYLDGDDEYPTLCGTGTEDYFGGAWNFDMDGKYRTYSTAYLGLPQALPADEIYQAHQRFGMYRWHVHDPICFHRELRVTVQGLGWRDSDTYLPLEDAEIATTVWWYQEVPPSG
stoichiometry N (SEC-MALS): 3
